According to PMC3269570 (European Biophysics Journal, 2011):

Target: the molecule itself
Experiment: cross-linking

Protein: MQRINKNVVLALLTLTSSAFLLFQLYYYKHYLSARN [N-terminal transmembrane domain of Fukutin-I (FK1TMD), unlabelled peptide]
- stoichiometry N: 2
